Values quoted from earlier work in paper PMC5437010.

Target: factor XIa (Homo sapiens) (UniProt P03951)
Sequence of UniProt P03951 (P03951 388-625): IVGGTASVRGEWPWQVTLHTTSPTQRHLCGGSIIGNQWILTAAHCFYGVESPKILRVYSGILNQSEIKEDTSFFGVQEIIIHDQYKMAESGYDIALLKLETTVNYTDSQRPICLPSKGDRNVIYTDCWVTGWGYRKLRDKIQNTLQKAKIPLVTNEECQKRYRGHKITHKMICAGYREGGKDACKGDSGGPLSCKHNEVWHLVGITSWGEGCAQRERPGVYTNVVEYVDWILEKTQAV

Question: Which Ki does the source give for KPI KPI (from UniProt P05067) here?
Answer: 0.4 nM
